The record followed here is the supplement of paper PMC5998384.

In data set [1] the test system is HeLa Kyoto. Briefly: solubility in G1/S (NP-40 vs SDS abundance) (log2 ratio); higher = more soluble. To be noted: cell cycle stage: G1/S.
The subject of data set [2] is HeLa Kyoto. Briefly: thermal stability score vs G1/S (z-score of summed log2 fold changes over temperatures); higher = more thermally stable than in G1/S.
For data set [3], the system named is HeLa Kyoto. The experiment in a line: melting temperature (median over replicates), in situ; higher = more thermally stable.
Data set [4] has as its system HeLa Kyoto. The experiment in a line: solubility change mitosis vs G1/S (difference of NP-40 vs SDS log2 ratios) (log2 ratio difference); higher = more soluble in mitosis.
Setting [5] is: cell cycle stage: early G1 (4.5 h after nocodazole release).
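For melting temperature (median over replicates), in situ in this document: HeLa Kyoto cells synchronized by double thymidine or nocodazole block, proteins quantified by TMT10plex mass spectrometry, three independent biological replicates.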
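For solubility change mitosis vs G1/S (difference of NP-40 vs SDS log2 ratios) in this document: synchronized HeLa Kyoto cells (double thymidine block for G1/S, nocodazole release for mitosis), protein amounts in NP-40 versus SDS lysates quantified by mass spectrometry, three biological replicates.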
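For solubility in G1/S (NP-40 vs SDS abundance) in this document: HeLa Kyoto cells arrested at G1/S by double thymidine block, proteins quantified by TMT10plex mass spectrometry in mild NP-40 versus SDS extracts, three biological replicates.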
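For thermal stability score vs G1/S (z-score of summed log2 fold changes over temperatures) in this document: synchronized HeLa Kyoto cells, proteins quantified by TMT10plex mass spectrometry, three biological replicates, mitosis taken 0.5 h after nocodazole release, G1/S directly after double thymidine block.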

As for “MGGRVFLAFCVWLTLPGAETQDSRGCARWCPQNSSCVNATACRCNPGFSSFSEIITTPTETCDDINECATPSKVSCGKFSDCWNTEGSYDCVCSPGYEPVSGAKTFKNESENTCQDVDECQQNPRLCKSYGTCVNTLGSYTCQCLPGFKFIPEDPKVCTDVNECTSGQNPCHSSTHCLNNVGSYQCRCRPGWQPIPGSPNGPNNTVCEDVDECSSGQHQCDSSTVCFNTVGSYSCRCRPGWKPRHGIPNNQKDTVCEDMTFSTWTPPPGVHSQTLSRFFDKVQDLGRDSKTSSAEVTIQNVIKLVDELMEAPGDVEALAPPVRHLIATQLLSNLEDIMRILAKSLPKGPFTYISPSNTELTLMIQERGDKNVTMGQSSARMKLNWAVAAGAEDPGPAVAGILSIQNMTTLLANASLNLHSKKQAELEEIYESSIRGVQLRRLSAVNSIFLSHNNTKELNSPILFAFSHLESSDGEAGRDPPAKDVMPGPRQELLCAFWKSDSDRGGHWATEGCQVLGSKNGSTTCQCSHLSSFAILMAHYDVEDWKLTLITRVGLALSLFCLLLCILTFLLVRPIQGSRTTIHLHLCICLFVGSTIFLAGIENEGGQVGLRCRLVAGLLHYCFLAAFCWMSLEGLELYFLVVRVFQGQGLSTRWLCLIGYGVPLLIVGVSAAIYSKGYGRPRYCWLDFEQGFLWSFLGPVTFIILCNAVIFVTTVWKLTQKFSEINPDMKKLKKARALTITAIAQLFLLGCTWVFGLFIFDDRSLVLTYVFTILNCLQGAFLYLLHCLLNKKVREEYRKWACLVAGGSKYSEFTSTTSGTGHNQTRALRASESGI [CD97]”, in the data set with HeLa Kyoto [1], the “solubility in G1/S (log2)” value was 0.257. Also, the figures for the thermal stability score in the data set on HeLa Kyoto [2] (setting [5]) and in the data set with HeLa Kyoto [2] (cell cycle stage: mitosis) were 0.176 and -0.537, respectively. The melting temperature in the data set with HeLa Kyoto [3] (cell cycle stage: G1/S) was 59.6 °C; in the data set on HeLa Kyoto [3] (cell cycle stage: mitosis), 58.4 °C. The “solubility change mitosis (log2)” value with HeLa Kyoto [4] was -0.171.
Regarding “MGGVGEPGPREGPAQPGAPLPTFCWEQIRAHDQPGDKWLVIERRVYDISRWAQRHPGGSRLIGHHGAEDATDAFRAFHQDLNFVRKFLQPLLIGELAPEEPSQDGPLNAQLVEDFRALHQAAEDMKLFDASPTFFAFLLGHILAMEVLAWLLIYLLGPGWVPSALAAFILAISQAQSWCLQHDLGHASIFKKSWWNHVAQKFVMGQLKGFSAHWWNFRHFQHHAKPNIFHKDPDVTVAPVFLLGESSVEYGKKKRRYLPYNQQHLYFFLIGPPLLTLVNFEVENLAYMLVCMQWADLLWAASFYARFFLSYLPFYGVPGVLLFFVAVRVLESHWFVWITQMNHIPKEIGHEKHRDWVSSQLAATCNVEPSLFTNWFSGHLNFQIEHHLFPRMPRHNYSRVAPLVKSLCAKHGLSYEVKPFLTALVDIVRSLKKSGDIWLDAYLHQ [FADS3]”, the “solubility in G1/S (log2)” value in the data set on HeLa Kyoto [1] was -0.263. The results for the thermal stability score in the data set with HeLa Kyoto [2] (setting [5]) and in the data set with HeLa Kyoto [2] (cell cycle stage: mitosis) were -1.31 and -0.774, respectively. The melting temperature with HeLa Kyoto [3] (cell cycle stage: G1/S) came out at 54.5 °C; in the data set with HeLa Kyoto [3] (cell cycle stage: mitosis) it was 53.9 °C. Also, the “solubility change mitosis (log2)” value with HeLa Kyoto [4] came out at 0.0263.
As for “MGIKVQRPRCFFDIAINNQPAGRVVFELFSDVCPKTCENFRCLCTGEKGTGKSTQKPLHYKSCLFHRVVKDFMVQGGDFSEGNGRGGESIYGGFFEDESFAVKHNKEFLLSMANRGKDTNGSQFFITTKPTPHLDGHHVVFGQVISGQEVVREIENQKTDAASKPFAEVRILSCGELIPKSKVKKEEKKRHKSSSSSSSSSSDSDSSSDSQSSSDSSDSESATEEKSKKRKKKHRKNSRKHKKEKKKRKKSKKSASSESEAENLEAQPQSTVRPEEIPPIPENRFLMRKSPPKADEKERKNRERERERECNPPNSQPASYQRRLLVTRSGRKIKGRGPRRYRTPSRSRSRDRFRRSETPPHWRQEMQRAQRMRVSSGERWIKGDKSELNEIKENQRSPVRVKERKITDHRNVSESPNRKNEKEKKVKDHKSNSKERDIRRNSEKDDKYKNKVKKRAKSKSRSKSKEKSKSKERDSKHNRNEEKRMRSRSKGRDHENVKEKEKQSDSKGKDQERSRSKEKSKQLESKSNEHDHSKSKEKDRRAQSRSRECDITKGKHSYNSRTRERSRSRDRSRRVRSRTHDRDRSRSKEYHRYREQEYRRRGRSRSRERRTPPGRSRSKDRRRRRRDSRSSEREESQSRNKDKYRNQESKSSHRKENSESEKRMYSKSRDHNSSNNSREKKADRDQSPFSKIKQSSQDNELKSSMLKNKEDEKIRSSVEKENQKSKGQENDHVHEKNKKFDHESSPGTDEDKSG [PPIG]”, in the data set with HeLa Kyoto [1], the “solubility in G1/S (log2)” value was -1.67. Moreover, the thermal stability score with HeLa Kyoto [2] (setting [5]) was found to be 1.25; in the data set on HeLa Kyoto [2] (cell cycle stage: mitosis), 2.05. Besides, the melting temperature in the data set on HeLa Kyoto [3] (cell cycle stage: G1/S) is 45.8 °C; in the data set on HeLa Kyoto [3] (cell cycle stage: mitosis), 47.6 °C. The “solubility change mitosis (log2)” value in the data set with HeLa Kyoto [4] turned out to be 0.846.
With “MGIQGGSVLFGLLLVLAVFCHSGHSLQCYNCPNPTADCKTAVNCSSDFDACLITKAGLQVYNKCWKFEHCNFNDVTTRLRENELTYYCCKKDLCNFNEQLENGGTSLSEKTVLLLVTPFLAAAWSLHP [CD59]”, the “solubility in G1/S (log2)” value in the data set with HeLa Kyoto [1] is -0.814. Besides, the values for the thermal stability score in the data set on HeLa Kyoto [2] (setting [5]) and in the data set with HeLa Kyoto [2] (cell cycle stage: mitosis) were -2.05 and -3.23, respectively. The values for the melting temperature in the data set with HeLa Kyoto [3] (cell cycle stage: G1/S) and with HeLa Kyoto [3] (cell cycle stage: mitosis) were 56.8 °C and 64.9 °C, respectively. Also, the “solubility change mitosis (log2)” value in the data set with HeLa Kyoto [4] is -0.0336.
Consider “MGKGCKVVVCGLLSVGKTAILEQLLYGNHTIGMEDCETMEDVYMASVETDRGVKEQLHLYDTRGLQEGVELPKHYFSFADGFVLVYSVNNLESFQRVELLKKEIDKFKDKKEVAIVVLGNKIDLSEQRQVDAEVAQQWAKSEKVRLWEVTVTDRKTLIEPFTLLASKLSQPQSKSSFPLPGRKNKGNSNSEN [NKIRAS1]”, for which, in the data set with HeLa Kyoto [1], the “solubility in G1/S (log2)” value was found to be 0.0841. The values for the thermal stability score in the data set on HeLa Kyoto [2] (setting [5]) and in the data set with HeLa Kyoto [2] (cell cycle stage: mitosis) were 2.91e-19 and -1.95e-17, respectively. The melting temperature with HeLa Kyoto [3] (cell cycle stage: G1/S) came out at 48.9 °C; with HeLa Kyoto [3] (cell cycle stage: mitosis), 48.6 °C. The “solubility change mitosis (log2)” value in the data set on HeLa Kyoto [4] was -0.0109.
